Columns and labels:
IgE+ mMCP-1+ mast cells = assay: Localization of gavaged HRF inhibitors in jejunum by confocal microscopy; format: in vivo, mouse; details: using anti-His tag, data not shown
Description: HRF multimers in the jejunum of non-sensitized/OVA challenged (Cont, n=6) or OVA-sensitized/OVA-challenged (OVA, n=5) mice were quantified by a newly developed ELISA (FIG. 3A, FIG. 3C). HRF was also measured by ELISA (FIG. 3B). HRF dimer and monomer were quantified by western blotting in control (Cont) and food allergic mice treated without (OVA) or with GST (GST) or GST-N19 (N19) (n=5 for each group) (FIG. 3D). Allergic diarrhea was induced by 6 challenges. On the day of 7th challenge, the mice were gavaged with 0.1 mg of GST or GST-N19 (FIG. 3E). One hour later, mice were sacrificed without OVA challenge. Jejunum tissues were stained for GST, IgE, and mMCP-1 before confocal microscopy (n=5 for GST and n=6 for GST-N19). Arrows indicate cells positive for GST or GST-N19 as well as IgE and mMCP-1. […] Bars=50 μm.
Jejunum biopsy was fixed in 4% paraformaldehyde at 4° C., washed in 10-20% sucrose in phosphate buffered saline, and embedded in O.C.T. compound (Sakura Finetek, Japan). Cyrosections were made in 6 μm and blocked with 2% skim milk. Immunostaining was performed with anti-HRF (rabbit polyclonal FL-172), anti-GST (rabbit polyclonal Z-5) (Santa Cruz Biotechnology), anti-IgE (clone RME-1 from Biolegend and clone R35-72 from BD Biosciences), anti-mMCP1 (Catalog #AF5146, R&D Systems), anti-CD45 (clone 30-F11), anti-CD63 (clone NVG-2) (Biolegend), and anti-Siglec F (clone E50-2440, BD Biosciences) as primary antibodies, and anti-Rabbit Alexa Fluor 647 (Catalog #A21245), anti-Rat Alexa Fluor 568 (Catalog #A11077), and anti-Sheep Alexa Fluor 555 (Catalog #A11015) (Thermo Fisher Scientific) as secondary antibodies. Coverslips were mounted with Prolong Gold with DAPI (Thermo Fisher Scientific) and fluorescence was observed under Leica TCS SP2 confocal microscopy (Leica) and Nuance Multi spectral Imaging System (PerkinElmer).
Applicant next tested whether HRF inhibitors target mucosal mast cells. To this end, mice with allergic diarrhea were i.g. gavaged with GST-N19 or GST, and their location was identified 1 h after their gavage.

[1] = system: OVA-induced food allergy (allergic diarrhea); assay: IgE-mediated experimental food allergy, i.g. pretreatment with HRF inhibitor before each OVA challenge; format: in vivo, mouse
Description: FIGS. 1A-1I show GST-N19 inhibits the development of diarrhea and intestinal mastocytosis in murine food allergy. Mice were i.p. sensitized with OVA ([…]) plus alum on days 0 and 14. From day 28, mice were i.g. challenged with OVA (50 mg) three times a week. Sensitized mice were either non-pretreated (−) or i.g. pretreated with 100 μg of GST or GST-N19 (N19). (FIG. 1A) Procedure scheme. (FIG. 1B) The development of diarrhea was monitored for 90 min after each OVA challenge. (n=5 for non-sensitized group, n=3 for inhibitor non-pretreated group, n=4 for GST group, n=6 for N19 group, data are representative of at least 3 independent experiments) Log-rank test: p=0.028 (GST vs. GST-N19), p=0.036 (control vs. GST-N19). […] (FIG. 1C-FIG. 1E) Total IgE, IgG1, HRF, and HRF-reactive IgE and IgG in sera were measured by ELISA. (FIG. 1F) Serum mMCP-1 was also measured by ELISA. (FIG. 1G) Sections of jejunum were stained with chloroacetate esterase to identify mast cells. Sections indicated by rectangles are enlarged in lower rows. Bar=100 μm in large pictures and 50 μm in insets. (FIG. 1H) Flow cytometry was performed to enumerate MMC9s (Lin^−c-Kit^+ST2^+IL-17RB^−Integrin β7^lo) in jejunum. (n=14 for non-sensitized group, n=15 for inhibitor non-pretreated group, n=9 for GST group, n=9 for GST-N19 group, pooled data of 3 independent experiments) (FIG. 1I) Cytokine mRNAs in jejunum were quantified by qRT-PCR. *, **: p<0.05, p<0.01 by ANOVA with Tukey's multiple comparison.
Mice were i.p. sensitized with OVA (50 μg/mouse) plus alum on days 0 and 14. From day 28, mice were i.g. challenged with OVA (25 or 50 mg) or PBS (control) three times a week. Before each challenge, mice were starved for 3 h, then i.g. pretreated with GST, GST-N19 (100 μg/mouse), synthetic N19 peptide, or HRF-2CA. The development of diarrhea was monitored for 90 min after OVA challenge. Diarrhea severity (30) was based on states of stool: solid (score 0), funicular (score 1), slurry (score 2), and watery (score 3).
For histologic analysis, jejunal tissue was fixed in 10% formalin. Mast cells in jejunal sections were detected by chloroacetate esterase staining. IgE, IgG, IgG1, IgG2a, mMCP-1, HRF, HRF-reactive IgE, and HRF-reactive IgG 24 h after the last OVA challenge were measured by ELISA (see Supplemental Information). Cytokine mRNAs in jejunum were quantified by qRT-PCR.
Twenty-four hours after the last OVA challenge, mice were sacrificed and small intestines (0.5-15 cm from stomach) were collected. The intestinal tissues were opened longitudinally and washed with HBSS. The washed tissues were incubated with 5 mM EDTA-HBSS for 30 min at 4° C., transferred to 30 ml HBSS in 50 ml tubes, and vigorously shaken to remove intestinal epithelial cells. The tissues were then washed with 10 ml of 10% FCS RPMI medium. Tissues were cut into tiny pieces and incubated with 2.4 mg/ml Collagenase D and 0.2 mg/ml DNase for 30 min at 37° C. Then cells were washed, resuspended in 44% Percoll solution, and slowly loaded on the top of 67% Percoll solution. The cells were centrifuged (1800 rpm, 20 min) and lymphocyte fractions were collected and used for detection of MMC9s (Lin^−c-Kit^+ST2^+IL-17RB^−Integrin β7^lo).
The cells were first incubated with 2.4G2 for 15 min at 4° C. and further incubated with Abs (PE-anti-07 integrin mAb (clone FIB504), PerCP/Cy5.5-anti-CD4 mAb (clone RM4-5), PerCP/Cy5.5-anti-CD8 mAb (clone 53-6.7), PerCP/Cy5.5-anti-CD11b mAb (clone M1/70), PerCP/Cy5.5-anti-CD11c mAb (clone N418), PerCP/Cy5.5-anti-B220 mAb (RA3-6B2), PerCP/Cy5.5-anti-Ly-6G/Ly-6C mAb (clone RB6-8C5), PerCP/Cy5.5-anti-CD335 mAb (clone 29A1.4), AlexaFluor647-anti-IL-17RB (clone 9B10), APC/Cy7-anti-CD117 (clone 2B8), Biotin-anti-ST2 (clone DIH9)) (Biolegend) for 30 min at 4° C. After washed, the cells were incubated with SA-BV421 (Biolegend) for 30 min at 4° C. MMC9 population was identified using FACS Canto. Data were analyzed using FlowJo software.

B1: HRF-2CA-His6, a monomeric mutant of mouse HRF (protein)
chain: MIIYRDLISHDELFSDIYKIREIADGLALEVEGKMVSRTEGAIDDSLIGGNASAEGPEGEGTESTVVTGVDIVMNHHLQETSFTKEAYKKYIKDYMKSLKGKLEEQKPERVKPFMTGAAEQIKHILANFNNYQFFIGENMNPDGMVALLDYREDGVTPFMIFFKDGLEMEKAHHHHHH
IgE+ mMCP-1+ mast cells targeted by the His-tagged substance (IgE+ mMCP-1+ mast cells): 64.0±2.69%
HRF-reactive IgE levels ([1]; OVA-sensitized mice after OVA challenges, i.g. pretreatment): did not affect
reduction of HRF-reactive IgG levels ([1]; after eleven OVA challenges): not affected
number of mucosal mast cells in jejunum (intestinal mastocytosis) ([1]; i.g. pretreatment before each OVA challenge, chloroacetate esterase staining): inhibits
levels of total IgE, IgG1, IgG2a or HRF-reactive IgE and IgG ([1]; i.g. pretreatment, serum ELISA): failed to affect
diarrhea occurrence / incidence ([1]; sensitized mice pretreated i.g. with 100 μg before each OVA challenge): inhibits

From US20220241369A1, “COMPOSITIONS AND METHODS OF MODULATING INFLAMMATION” (La Jolla Institute for Allergy and Immunology, priority 2018, published 2022)
